Results from patent publication US20250230255A1 (BIOTHEUS, published 2025).
Where two headings read alike, the source gives them in different places.

How the values were obtained:
[1] = biological target: T1, human CD39 (recombinant protein in solution) (human, UniProt P49961 38-478, limits assumed); test: BLI (ForteBio), method of Example 3, human CD39 in solution
T1 construct: also called soluble human CD39; soluble CD39
T1 sequence: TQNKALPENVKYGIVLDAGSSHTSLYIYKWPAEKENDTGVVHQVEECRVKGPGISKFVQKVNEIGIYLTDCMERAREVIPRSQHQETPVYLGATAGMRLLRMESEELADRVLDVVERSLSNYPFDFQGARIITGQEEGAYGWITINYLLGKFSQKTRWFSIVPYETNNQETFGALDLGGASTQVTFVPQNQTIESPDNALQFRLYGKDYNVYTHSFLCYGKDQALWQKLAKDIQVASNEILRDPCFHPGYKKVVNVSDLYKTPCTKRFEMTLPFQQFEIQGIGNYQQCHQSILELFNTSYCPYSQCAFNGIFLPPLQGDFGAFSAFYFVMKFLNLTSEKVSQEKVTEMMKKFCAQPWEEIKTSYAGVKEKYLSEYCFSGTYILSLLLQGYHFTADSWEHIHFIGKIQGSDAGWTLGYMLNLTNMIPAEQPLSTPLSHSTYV
Description: (§1) ForteBio affinity test was conducted according to the existing methods (Estep, P et al., High throughput solution based measurement of antibody-antigen affinity and affinity binding. MAbs, 2013.5 (2): p. 270-8). In short, the sensor is balanced offline in the analysis buffer for 30 min, and then tested online for 60 s to establish baseline. After that, the AHQ sensor is online loaded with the above-obtained purified antibody, and put into 100 nM human CD39 (SEQ ID NO: 28) for 5 min, and then transferred the sensor to PBS for dissociation for 5 min. A 1:1 binding model is used for the dynamic analysis.

[2] = biological target: PD-1 (of the Promega PD-1/PD-L1 blockade bioassay) (UniProt Q15116 25-288, limits assumed); test: cell-based or functional assay
[3] = biological target: T2, human PD-1 on cells (human, UniProt Q15116 25-288); test: flow cytometry on CHOS cells overexpressing human PD1, median fluorescence intensity PE-A
T2 construct: also called CHO-hPD1 cell

[4] = biological target: T3, cynomolgus PD-1 on cells (cynomolgus, UniProt Q15116 25-288 (human entry)); test: flow cytometry on CHOS cells overexpressing cynomolgus PD1, median fluorescence intensity PE-A
T3 construct: also called CHO-cynoPD1 cell
T3 chain: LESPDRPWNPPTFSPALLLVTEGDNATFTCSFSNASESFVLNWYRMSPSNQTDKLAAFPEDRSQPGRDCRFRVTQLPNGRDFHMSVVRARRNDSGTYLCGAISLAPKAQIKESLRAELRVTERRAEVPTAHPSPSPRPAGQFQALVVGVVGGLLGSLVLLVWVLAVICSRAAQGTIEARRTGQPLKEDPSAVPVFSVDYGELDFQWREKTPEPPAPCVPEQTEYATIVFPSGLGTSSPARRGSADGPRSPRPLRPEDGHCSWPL

[5] = biological target: T4, human CD39 on cells (human, UniProt P49961 1-510); test: cell-based or functional assay
T4 sequence: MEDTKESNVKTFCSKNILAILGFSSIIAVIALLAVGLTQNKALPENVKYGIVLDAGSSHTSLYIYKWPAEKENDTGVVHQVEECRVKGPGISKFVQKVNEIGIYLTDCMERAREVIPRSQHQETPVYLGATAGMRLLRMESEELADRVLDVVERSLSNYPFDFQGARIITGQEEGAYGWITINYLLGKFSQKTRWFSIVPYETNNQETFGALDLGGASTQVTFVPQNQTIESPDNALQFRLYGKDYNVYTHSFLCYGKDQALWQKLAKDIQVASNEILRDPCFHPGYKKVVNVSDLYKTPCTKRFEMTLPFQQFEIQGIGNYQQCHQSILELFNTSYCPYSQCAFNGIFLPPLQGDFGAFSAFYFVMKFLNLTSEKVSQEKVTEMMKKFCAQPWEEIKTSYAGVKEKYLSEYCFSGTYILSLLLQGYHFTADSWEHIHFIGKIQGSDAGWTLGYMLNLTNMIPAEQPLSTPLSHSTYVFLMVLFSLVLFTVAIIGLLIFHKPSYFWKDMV

[6] = biological target: T4, human CD39 on cells; test: cell-based or functional assay; remark: listed apart in the source
[7] = biological target: T1, human CD39 (recombinant protein in …); test: cell-based or functional assay
[8] = biological target: T4, human CD39 on cells; test: cell-based or functional assay; remark: listed apart in the source
[9] = biological target: T4, human CD39 on cells; test: cell-based or functional assay; remark: listed apart in the source
[10] = biological target: T1, human CD39 (recombinant protein in …); test: cell-based or functional assay; remark: listed apart in the source
[11] = biological target: T4, human CD39 on cells; test: flow cytometry on CHO-hCD39 cells, MFI titration
[12] = biological target: T5, cynomolgus CD39 on cells (cynomolgus, UniProt P49961 6-510 (human entry)); test: flow cytometry on CHO-cyCD39 cells, MFI titration
T5 construct: also called cyCD39; CHO-cyCD39 cells
T5 chain: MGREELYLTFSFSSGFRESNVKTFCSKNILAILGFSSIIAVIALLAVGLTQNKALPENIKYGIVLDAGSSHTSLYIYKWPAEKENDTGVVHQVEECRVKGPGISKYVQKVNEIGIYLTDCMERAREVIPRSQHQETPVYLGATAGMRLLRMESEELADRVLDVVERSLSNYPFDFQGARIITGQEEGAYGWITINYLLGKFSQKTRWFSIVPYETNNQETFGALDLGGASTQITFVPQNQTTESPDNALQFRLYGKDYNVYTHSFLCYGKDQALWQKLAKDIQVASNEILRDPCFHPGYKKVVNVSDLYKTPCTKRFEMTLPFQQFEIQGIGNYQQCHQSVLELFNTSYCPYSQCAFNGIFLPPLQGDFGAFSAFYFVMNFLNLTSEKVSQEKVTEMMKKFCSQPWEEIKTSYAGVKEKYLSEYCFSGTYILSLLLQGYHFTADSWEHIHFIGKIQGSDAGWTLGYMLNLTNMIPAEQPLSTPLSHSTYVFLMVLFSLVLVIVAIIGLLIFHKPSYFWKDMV

[13] = biological target: T1, human CD39 (recombinant protein in …); test: BLI (ForteBio), method of Example 3, human CD39 in solution; remark: listed apart in the source
Description: as §1
The humanized sequences are subjected to the humanized antibody vector construction, expression and purification according to the method described in Example 2. […] The purified humanized antibodies were subjected to the affinity test at protein level according to the method described in Example 3.

[14] = biological target: T1, human CD39 (recombinant protein in …); test: BLI (ForteBio), antibody loaded on AHQ sensor, 100 nM human CD39 in solution, 1:1 model
Description: as §1

T2 sequence (Q15116 25-288 limits assumed): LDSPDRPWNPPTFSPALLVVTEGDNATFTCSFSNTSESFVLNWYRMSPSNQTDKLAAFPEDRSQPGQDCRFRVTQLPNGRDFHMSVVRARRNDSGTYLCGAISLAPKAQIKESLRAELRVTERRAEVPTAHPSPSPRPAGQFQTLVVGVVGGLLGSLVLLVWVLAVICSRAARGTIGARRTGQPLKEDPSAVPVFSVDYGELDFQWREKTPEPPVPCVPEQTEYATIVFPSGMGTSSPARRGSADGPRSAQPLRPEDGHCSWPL
Chain of PD-1 (of the Promega PD-1/PD-L1 blockade bioassay) (Q15116 25-288 limits assumed): as above

B1: Bi307/308 (bispecific antibody, human IgG1, kappa, L234A L235A)
heavy: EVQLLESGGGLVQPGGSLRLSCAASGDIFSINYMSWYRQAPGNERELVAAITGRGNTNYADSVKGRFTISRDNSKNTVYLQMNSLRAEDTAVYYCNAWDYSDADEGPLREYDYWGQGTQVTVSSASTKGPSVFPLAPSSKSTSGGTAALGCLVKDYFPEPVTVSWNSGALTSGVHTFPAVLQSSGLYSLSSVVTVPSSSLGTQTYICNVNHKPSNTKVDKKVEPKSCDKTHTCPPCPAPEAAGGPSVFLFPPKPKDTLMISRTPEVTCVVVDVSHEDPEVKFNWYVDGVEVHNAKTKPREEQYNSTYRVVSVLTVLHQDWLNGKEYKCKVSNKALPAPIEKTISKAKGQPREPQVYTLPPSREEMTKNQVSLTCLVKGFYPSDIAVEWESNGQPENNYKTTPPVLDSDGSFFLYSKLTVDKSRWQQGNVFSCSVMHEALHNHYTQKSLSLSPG
light: EVQLLESGGGLVQPGGSLRLSCAVSRGTFSEYSMSWFRQAPGKEREFVTAISGFGHITHYADSVKGRFTISRDNSKNTVYLQMNSLRAEDTAVYYCAAAWQTSPRRMMQMAGSITWGQGTQVTVSSRTVAAPSVFIFPPSDEQLKSGTASVVCLLNNFYPREAKVQWKVDNALQSGNSQESVTEQDSKDSTYSLSSTLTLSKADYEKHKVYACEVTHQGLSSPVTKSFNRGEC
notes: also called bi-epitopic anti-CD39 antibody resembling IgG structure
Kd [1]: 0.351 nM
koff [1]: 0.000106 s⁻¹
kon [1]: 303000 M⁻¹ s⁻¹

B2: anti-PD1 antibody ADI-54872 (antibody, V domains shown)
VH: EVQLVQSGAEVKKPGASVKVSCKASGYTFTEYYIYWVRQAPGQGLEWIGGINPSNGGTNFNEKFKPRVTMTVDTSTSTAYMELSSLRSEDTAVYYCTVRDFRFDKGFKYWGQGTLVTVSS
VL: DIVLTQSPATLSLSPGERATLSCRASKSVSTSGLNYVHWYQRKPGQAPRLLIYLGSYLDSGVPARFSGSGSGTDFTLTISSLEPEDFAVYYCQQSWELPLTFGGGTKVEIK
notes: also called anti-PD-1 monoclonal antibody molecule
EC50 (read off the curve) [2]: ~0.2 nM
EC50 (read off the curve) [3]: ~10 nM
EC50 (read off the curve) [4]: ~10 nM

B3: I394 BMK (antibody, human IgG1, kappa, V domains shown)
VH: EVQLQQSGPELVKPGASVKMSCKASGYTFTDYNMHWVKQSHGRTLEWIGYIVPLNGGSTFNQKFKGRATLTVNTSSRTAYMELRSLTSEDSAAYYCARGGTRFAYWGQGTLVTVSA
VL: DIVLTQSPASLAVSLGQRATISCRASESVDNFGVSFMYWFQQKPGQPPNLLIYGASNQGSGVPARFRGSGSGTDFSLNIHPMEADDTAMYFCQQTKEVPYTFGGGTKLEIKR
notes: also called control antibody
EC50 of blocking CD39 enzyme activity in human CD39 overexpression cells (ATP, CellTiter-Glo) [5]: 10.1 nM
EC50 of blocking CD39 enzyme activity in PBMC system [6]: 10.1 nM
EC50 of blocking enzyme activity of soluble CD39 [7]: 3.09 nM
EC50 of blocking CD39 enzyme activity of human CD39 overexpression cells [8]: 1.99 nM
EC50 of blocking CD39 enzyme activity in PBMC system [9]: 0.338 nM
EC50 of blocking enzyme activity of soluble human CD39 [10]: 8.89 nM
EC50 [11]: 4.76 nM
EC50 [12]: 5.53 nM
Kd [13]: 1.5 nM
koff [13]: 0.000371 s⁻¹
kon [13]: 245000 M⁻¹ s⁻¹
Kd [14]: 0.855 nM
koff [14]: 0.0002 s⁻¹
kon [14]: 285000 M⁻¹ s⁻¹

B4: anti-PD1×CD39 antibody (bispecific antibody, human IgG1, kappa)
heavy: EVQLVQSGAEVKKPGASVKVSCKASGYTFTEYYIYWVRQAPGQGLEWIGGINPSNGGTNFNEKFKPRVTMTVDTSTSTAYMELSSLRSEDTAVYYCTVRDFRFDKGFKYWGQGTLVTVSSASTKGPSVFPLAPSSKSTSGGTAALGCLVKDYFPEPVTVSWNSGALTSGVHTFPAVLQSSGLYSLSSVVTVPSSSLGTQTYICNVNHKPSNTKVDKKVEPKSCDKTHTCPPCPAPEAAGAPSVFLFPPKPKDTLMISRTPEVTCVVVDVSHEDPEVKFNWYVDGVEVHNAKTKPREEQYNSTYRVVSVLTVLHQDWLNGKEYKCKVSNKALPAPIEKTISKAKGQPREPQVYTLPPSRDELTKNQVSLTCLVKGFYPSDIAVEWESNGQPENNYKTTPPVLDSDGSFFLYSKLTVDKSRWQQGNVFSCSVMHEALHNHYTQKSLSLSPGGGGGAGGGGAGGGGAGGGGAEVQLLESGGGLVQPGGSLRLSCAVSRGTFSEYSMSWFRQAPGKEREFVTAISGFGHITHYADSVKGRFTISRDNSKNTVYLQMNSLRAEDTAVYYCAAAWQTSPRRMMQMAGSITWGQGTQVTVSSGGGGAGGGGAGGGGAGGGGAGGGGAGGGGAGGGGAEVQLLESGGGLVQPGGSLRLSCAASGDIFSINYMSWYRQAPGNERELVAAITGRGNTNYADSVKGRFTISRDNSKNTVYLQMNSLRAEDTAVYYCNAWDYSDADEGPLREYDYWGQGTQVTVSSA
light: DIVLTQSPATLSLSPGERATLSCRASKSVSTSGLNYVHWYQRKPGQAPRLLIYLGSYLDSGVPARFSGSGSGTDFTLTISSLEPEDFAVYYCQQSWELPLTFGGGTKVEIKRTVAAPSVFIFPPSDEQLKSGTASVVCLLNNFYPREAKVQWKVDNALQSGNSQESVTEQDSKDSTYSLSSTLTLSKADYEKHKVYACEVTHQGLSSPVTKSFNRGEC
notes: also called Anti-PD1xCD39 antibody
EC50 (read off the curve) [2]: ~0.3 nM
EC50 (read off the curve) [3]: ~10 nM
EC50 (read off the curve) [4]: ~20 nM
